In patent US20140057857A1:
pIC50, pKd: −log10 of the molar value.

Columns and labels:
GST-Mcl-1 [1] = assay: competitive FP assay on Mcl-1
GST-Mcl-1 [2] = assay: fluorescence polarization assay, labeled peptide on GST-Mcl-1
GST-Bcl-xL = assay: fluorescence polarization assay, labeled peptide on GST-Bcl-xL

| pIC50 (GST-Mcl-1 [1]) | pKd (GST-Mcl-1 [2]) | pKd (GST-Bcl-xL) | Substance |
| --- | --- | --- | --- |
| 6.80 |  |  | Ubiquitin-Noxa fusion protein |
|  | 6.90 | 7.85 | Bak (fluorescein-labeled Bak peptide) |
|  | 8.60 | 8.85 | Bim (fluorescein-labeled Bim peptide) |
